Article PMC8892280 (Proceedings of the National Academy of Sciences of the …, 2022)

Legend:
[1] = biological target: T1, full-length human LRRK2 (leucine-rich repeat kinase 2) (human, UniProt Q5S007); test: MST
[2] = biological target: LRRK2 Roc-COR-Kinase-WD40 (RCKW) domain construct (Homo sapiens, UniProt Q5S007, biotinylated (in the BLI experiment)); test: BLI
endogenous (mouse) LRRK2 = endogenous (mouse) LRRK2 (Mus musculus, UniProt Q5S006); test: pull-down
[3] = biological target: T1, full-length human LRRK2 (leucine-rich …); test: BLI
[4] = biological target: T1, full-length human LRRK2 (leucine-rich …); test: MST; remark: listed apart in the source
[5] = biological target: LRRK2 RocCOR domain construct (Homo sapiens, UniProt Q5S007); test: ELISA
[6] = biological target: LRRK2 kinase-WD40 (K-WD40) two-domain construct (Homo sapiens, UniProt Q5S007); test: ELISA
[7] = biological target: LRRK2 C-terminal subdomain of COR (COR-B) (Homo sapiens, UniProt Q5S007); test: ELISA
LRRK2 Roc domain = LRRK2 Roc domain (Homo sapiens, UniProt Q5S007); test: ELISA
[8] = biological target: LRRK2 N-terminal armadillo (ARM) domain construct (Homo sapiens, UniProt Q5S007); test: ELISA
[9] = biological target: T1, full-length human LRRK2 (leucine-rich …); test: ELISA
[10] = biological target: T1, full-length human LRRK2 (leucine-rich …); test: enzyme kinetics

Sequence of endogenous (mouse) LRRK2 (Q5S006 whole entry): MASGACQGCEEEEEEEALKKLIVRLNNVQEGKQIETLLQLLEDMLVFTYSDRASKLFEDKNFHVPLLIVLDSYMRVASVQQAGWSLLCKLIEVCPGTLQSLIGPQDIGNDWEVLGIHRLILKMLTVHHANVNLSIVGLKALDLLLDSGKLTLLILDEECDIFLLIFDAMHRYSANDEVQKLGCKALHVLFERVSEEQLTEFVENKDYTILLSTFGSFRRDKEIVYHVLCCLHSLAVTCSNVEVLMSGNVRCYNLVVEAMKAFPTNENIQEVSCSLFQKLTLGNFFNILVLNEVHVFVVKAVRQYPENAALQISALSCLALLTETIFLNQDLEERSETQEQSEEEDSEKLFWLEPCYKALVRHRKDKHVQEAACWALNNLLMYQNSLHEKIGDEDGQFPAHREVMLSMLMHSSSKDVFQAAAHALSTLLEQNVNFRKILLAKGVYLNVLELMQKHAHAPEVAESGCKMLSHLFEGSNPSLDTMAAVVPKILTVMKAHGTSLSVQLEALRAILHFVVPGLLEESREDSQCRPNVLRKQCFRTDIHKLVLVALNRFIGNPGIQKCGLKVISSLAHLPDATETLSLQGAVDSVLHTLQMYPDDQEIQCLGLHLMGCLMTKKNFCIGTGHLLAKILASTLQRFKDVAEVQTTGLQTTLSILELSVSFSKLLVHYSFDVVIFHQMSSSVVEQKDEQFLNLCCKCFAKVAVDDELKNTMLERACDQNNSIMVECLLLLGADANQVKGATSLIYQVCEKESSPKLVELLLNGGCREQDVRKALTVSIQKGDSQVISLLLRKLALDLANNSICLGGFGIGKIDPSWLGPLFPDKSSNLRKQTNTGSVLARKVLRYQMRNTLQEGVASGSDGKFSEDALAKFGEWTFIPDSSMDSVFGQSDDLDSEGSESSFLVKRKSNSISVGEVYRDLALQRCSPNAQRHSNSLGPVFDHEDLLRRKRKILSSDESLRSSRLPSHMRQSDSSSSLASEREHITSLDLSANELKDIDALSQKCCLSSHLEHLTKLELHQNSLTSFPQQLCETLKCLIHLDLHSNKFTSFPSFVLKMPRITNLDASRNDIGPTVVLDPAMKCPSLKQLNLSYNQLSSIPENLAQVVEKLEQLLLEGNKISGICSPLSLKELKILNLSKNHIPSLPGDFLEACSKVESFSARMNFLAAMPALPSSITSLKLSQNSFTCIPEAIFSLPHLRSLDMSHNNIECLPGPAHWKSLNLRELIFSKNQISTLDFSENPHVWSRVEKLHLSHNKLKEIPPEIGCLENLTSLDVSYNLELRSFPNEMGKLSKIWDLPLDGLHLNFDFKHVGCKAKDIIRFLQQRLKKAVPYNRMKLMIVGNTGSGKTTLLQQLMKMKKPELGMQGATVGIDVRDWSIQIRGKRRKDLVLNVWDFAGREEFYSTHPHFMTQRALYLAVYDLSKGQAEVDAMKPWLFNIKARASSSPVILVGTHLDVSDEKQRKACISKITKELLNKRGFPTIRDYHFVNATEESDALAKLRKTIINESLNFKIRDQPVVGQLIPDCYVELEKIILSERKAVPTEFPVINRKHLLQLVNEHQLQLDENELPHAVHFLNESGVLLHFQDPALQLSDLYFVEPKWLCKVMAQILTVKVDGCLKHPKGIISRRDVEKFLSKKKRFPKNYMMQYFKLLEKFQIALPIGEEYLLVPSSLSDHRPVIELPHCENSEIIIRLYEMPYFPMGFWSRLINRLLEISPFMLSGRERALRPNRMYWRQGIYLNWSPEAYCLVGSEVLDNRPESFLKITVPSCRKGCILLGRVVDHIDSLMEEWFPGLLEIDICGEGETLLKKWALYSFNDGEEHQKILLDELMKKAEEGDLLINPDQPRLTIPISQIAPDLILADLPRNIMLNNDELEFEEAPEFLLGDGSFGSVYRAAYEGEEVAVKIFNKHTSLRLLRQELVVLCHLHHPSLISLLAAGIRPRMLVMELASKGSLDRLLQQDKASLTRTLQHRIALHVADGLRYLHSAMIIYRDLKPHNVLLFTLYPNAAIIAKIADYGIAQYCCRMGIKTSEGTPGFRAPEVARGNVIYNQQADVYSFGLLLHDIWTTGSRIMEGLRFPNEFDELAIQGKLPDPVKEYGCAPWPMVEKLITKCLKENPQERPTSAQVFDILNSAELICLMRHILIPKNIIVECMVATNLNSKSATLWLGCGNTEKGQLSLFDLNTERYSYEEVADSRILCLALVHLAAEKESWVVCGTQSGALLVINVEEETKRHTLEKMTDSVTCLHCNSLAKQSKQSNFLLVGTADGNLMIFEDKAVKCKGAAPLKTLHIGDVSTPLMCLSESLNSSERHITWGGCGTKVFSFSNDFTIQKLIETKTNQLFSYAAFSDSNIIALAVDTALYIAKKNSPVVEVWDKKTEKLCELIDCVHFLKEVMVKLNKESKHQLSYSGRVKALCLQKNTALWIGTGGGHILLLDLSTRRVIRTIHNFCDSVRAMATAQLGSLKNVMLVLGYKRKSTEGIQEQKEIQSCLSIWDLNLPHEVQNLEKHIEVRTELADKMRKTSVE
Sequence of LRRK2 Roc-COR-Kinase-WD40 (RCKW) domain construct (Q5S007 whole entry, looked up, tested part not stated): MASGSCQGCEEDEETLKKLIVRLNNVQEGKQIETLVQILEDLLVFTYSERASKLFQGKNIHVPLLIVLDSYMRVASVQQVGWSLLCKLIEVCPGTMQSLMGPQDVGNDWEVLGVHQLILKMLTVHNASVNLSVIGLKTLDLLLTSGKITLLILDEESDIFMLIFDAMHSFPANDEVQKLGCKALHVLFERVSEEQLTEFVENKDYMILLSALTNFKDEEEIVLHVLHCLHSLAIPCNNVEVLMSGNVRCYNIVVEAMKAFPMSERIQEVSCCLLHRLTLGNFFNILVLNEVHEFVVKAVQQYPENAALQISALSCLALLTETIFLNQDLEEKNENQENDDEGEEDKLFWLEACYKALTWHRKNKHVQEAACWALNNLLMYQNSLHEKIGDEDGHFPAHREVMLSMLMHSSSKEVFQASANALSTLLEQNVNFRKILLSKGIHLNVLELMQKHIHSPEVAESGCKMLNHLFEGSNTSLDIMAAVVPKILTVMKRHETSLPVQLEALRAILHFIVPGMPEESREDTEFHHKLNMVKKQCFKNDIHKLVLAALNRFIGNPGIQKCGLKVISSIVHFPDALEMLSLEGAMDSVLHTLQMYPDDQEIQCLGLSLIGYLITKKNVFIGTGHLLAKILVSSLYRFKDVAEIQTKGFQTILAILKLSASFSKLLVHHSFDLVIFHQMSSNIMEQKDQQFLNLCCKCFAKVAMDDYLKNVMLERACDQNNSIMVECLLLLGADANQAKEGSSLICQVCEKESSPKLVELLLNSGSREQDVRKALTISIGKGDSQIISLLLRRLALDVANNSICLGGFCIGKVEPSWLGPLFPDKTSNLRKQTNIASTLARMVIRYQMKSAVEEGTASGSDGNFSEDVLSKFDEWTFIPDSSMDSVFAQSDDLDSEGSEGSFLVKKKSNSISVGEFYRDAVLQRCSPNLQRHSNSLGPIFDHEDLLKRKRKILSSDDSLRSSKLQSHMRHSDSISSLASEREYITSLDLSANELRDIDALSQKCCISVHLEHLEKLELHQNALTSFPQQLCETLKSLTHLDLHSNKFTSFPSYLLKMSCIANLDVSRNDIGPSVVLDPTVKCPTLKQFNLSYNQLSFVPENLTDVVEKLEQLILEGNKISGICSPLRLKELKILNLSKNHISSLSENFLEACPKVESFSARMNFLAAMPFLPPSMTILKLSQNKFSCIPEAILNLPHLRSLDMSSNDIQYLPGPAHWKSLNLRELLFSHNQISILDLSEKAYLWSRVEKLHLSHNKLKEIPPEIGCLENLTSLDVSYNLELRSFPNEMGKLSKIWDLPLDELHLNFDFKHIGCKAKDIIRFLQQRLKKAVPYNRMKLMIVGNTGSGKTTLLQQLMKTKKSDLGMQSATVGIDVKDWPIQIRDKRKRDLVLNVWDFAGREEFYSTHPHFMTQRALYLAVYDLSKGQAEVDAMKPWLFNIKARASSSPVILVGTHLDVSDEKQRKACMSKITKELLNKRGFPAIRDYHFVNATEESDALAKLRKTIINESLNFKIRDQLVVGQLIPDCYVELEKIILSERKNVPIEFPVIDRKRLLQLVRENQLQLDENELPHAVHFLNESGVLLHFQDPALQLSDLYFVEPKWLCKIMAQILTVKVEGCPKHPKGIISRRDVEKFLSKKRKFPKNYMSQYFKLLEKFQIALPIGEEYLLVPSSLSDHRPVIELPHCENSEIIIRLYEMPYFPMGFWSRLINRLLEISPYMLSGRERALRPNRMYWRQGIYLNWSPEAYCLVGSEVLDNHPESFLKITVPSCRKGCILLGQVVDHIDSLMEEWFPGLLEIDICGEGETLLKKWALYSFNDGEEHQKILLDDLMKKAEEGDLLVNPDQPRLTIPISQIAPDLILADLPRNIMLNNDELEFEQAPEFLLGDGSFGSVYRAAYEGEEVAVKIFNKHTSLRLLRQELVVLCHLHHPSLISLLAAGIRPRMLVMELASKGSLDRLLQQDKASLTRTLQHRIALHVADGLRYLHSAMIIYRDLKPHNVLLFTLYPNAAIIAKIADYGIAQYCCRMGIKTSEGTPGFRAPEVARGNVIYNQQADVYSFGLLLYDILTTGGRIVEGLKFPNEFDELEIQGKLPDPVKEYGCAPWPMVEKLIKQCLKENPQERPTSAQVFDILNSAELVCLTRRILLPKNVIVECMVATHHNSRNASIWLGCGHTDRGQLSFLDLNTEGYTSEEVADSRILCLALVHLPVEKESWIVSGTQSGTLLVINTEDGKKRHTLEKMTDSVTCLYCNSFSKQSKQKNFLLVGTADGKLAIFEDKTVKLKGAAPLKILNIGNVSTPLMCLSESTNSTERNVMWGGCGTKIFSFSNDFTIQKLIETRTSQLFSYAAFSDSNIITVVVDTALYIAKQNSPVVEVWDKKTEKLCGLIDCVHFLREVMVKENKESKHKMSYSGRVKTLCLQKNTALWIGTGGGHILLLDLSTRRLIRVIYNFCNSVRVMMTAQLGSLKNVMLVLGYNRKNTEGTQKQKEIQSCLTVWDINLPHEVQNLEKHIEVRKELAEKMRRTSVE
Sequence of LRRK2 C-terminal subdomain of COR (COR-B) (Q5S007 whole entry, looked up, the tested form may be a part): as the sequence (Q5S007 whole entry, looked up, tested part not stated) above
Sequence of LRRK2 RocCOR domain construct (Q5S007 whole entry, looked up, the tested form may be a part): as the sequence (Q5S007 whole entry, looked up, tested part not stated) above
Sequence of LRRK2 N-terminal armadillo (ARM) domain construct (Q5S007 whole entry, looked up, tested part not stated): as above

| Kd [2] | binding result (endogenous (mouse) LRRK2) | Kd [3] | Kd [4] | Binder | also measured |
| --- | --- | --- | --- | --- | --- |
|  |  |  |  | m-TAMRA-labeled Nb42 (VHH) VHH: QVQLVESGGGLVQAGGSLRLSCAASGDVNYAVGWFRQAPRKEREFVAAINWRGDNTDYTDSVKGRFTISRDNAKNTVYLQMNSLKPEDTAVYYCAAKSAPYWYSDIAPDYWGQGTQVTVSS | Kd [1]: 94 ± 30 nM |
| 18 ± 2 nM | binds | 58 ± 18 nM |  | Nb42 (VHH) VHH: QVQLVESGGGLVQAGGSLRLSCAASGDVNYAVGWFRQAPRKEREFVAAINWRGDNTDYTDSVKGRFTISRDNAKNTVYLQMNSLKPEDTAVYYCAAKSAPYWYSDIAPDYWGQGTQVTVSS |  |
|  |  |  | 26 ± 10 nM | m-TAMRA-labeled Nb40 (VHH) VHH: QVQLVESGGGLVQPGGSLRLSCVASGTIYAINRMGWYRQAPGKQRELVALITLGGGTNYGDSVKGRFTISRDNAKNTGYLQMNSLKPEDTAVYYCKVESSGYTDVFWGQGTQVTVSS |  |
| 2.6 ± 0.3 nM | binds | 2.5 ± 0.3 nM |  | Nb40 (VHH) VHH: QVQLVESGGGLVQPGGSLRLSCVASGTIYAINRMGWYRQAPGKQRELVALITLGGGTNYGDSVKGRFTISRDNAKNTGYLQMNSLKPEDTAVYYCKVESSGYTDVFWGQGTQVTVSS |  |
|  |  |  | 79 ± 19 nM | m-TAMRA-labeled Nb39 (VHH) VHH: QVQLVESGGGLVQAGGSLRLSCRASGGTFSTYAMGWFRQVPGKERETVAAVKWSGDMTYYADSVKGRFTISRDNAKNTVYLQMNSLRPEDTAVYYCAARRGLSYYRGPSEYDYWGQGTQVTVSS |  |
|  | binds | 12 ± 3 nM |  | Nb39 (VHH) VHH: QVQLVESGGGLVQAGGSLRLSCRASGGTFSTYAMGWFRQVPGKERETVAAVKWSGDMTYYADSVKGRFTISRDNAKNTVYLQMNSLRPEDTAVYYCAARRGLSYYRGPSEYDYWGQGTQVTVSS | binding result [2]: no binding; binding result [5]: no binding; binding result [6]: no binding; binding result [7]: no binding; binding result (LRRK2 Roc domain): no binding |
|  |  |  | 67 ± 24 nM | m-TAMRA-labeled Nb17 (VHH) VHH: QVQLVESGGGLVQPGGSLRLSCAASGSNIGYMAWYRQAPGSQRELVARIASGGSANYADSVKGRFTISRDNVKNTVYLHMNSLKPVDTAVYYCHADAWYNSRWSDYWGQGTQVTVSS |  |
|  | binds | 2 ± 0.3 nM |  | Nb17 (VHH) VHH: QVQLVESGGGLVQPGGSLRLSCAASGSNIGYMAWYRQAPGSQRELVARIASGGSANYADSVKGRFTISRDNVKNTVYLHMNSLKPVDTAVYYCHADAWYNSRWSDYWGQGTQVTVSS | binding result [2]: no binding; binding result [8]: no binding; binding result [5]: no binding; binding result [6]: no binding; binding result [7]: no binding; binding result (LRRK2 Roc domain): no binding; EC50 [9]: ~3 nM; EC50 in presence of Rab8a (20 µM) [9]: ~5 nM |
|  |  |  | 91 ± 28 nM | m-TAMRA-labeled Nb1 (VHH) VHH: QVQLVESGGGLVQAGGSLRLSCVASGRIFSGNAMGWYRQAPGRQRELVAGITNGGYTNYRQFVKGRFTISRDNAKRTVYLQMNSLKPEDTAVYYCNALDREARQVDYWGQGTQVTVSS |  |
| 39 ± 4 nM | binds | 55 ± 12 nM |  | Nb1 (VHH) VHH: QVQLVESGGGLVQAGGSLRLSCVASGRIFSGNAMGWYRQAPGRQRELVAGITNGGYTNYRQFVKGRFTISRDNAKRTVYLQMNSLKPEDTAVYYCNALDREARQVDYWGQGTQVTVSS | Ki [10]: 16000 nM; Kiu^app (apparent Ki for ATP-bound LRRK2) [10]: 30000 nM |
| 17 ± 7 nM | binds | 20 ± 5 nM |  | Nb23 (VHH) VHH: QVQLVESGGGLVQAGGSLRLSCAASGRTFSRYTMGWFRQAPGKDREFVARITTSGAVTTYADSAKGRFTISRDNAKNTVYLQMNTLKPEDTAVYYCAAGQGQLSSQSRFVDYWGQGTQVTVSS | Ki [10]: 9000 nM; Kiu^app (apparent Ki for ATP-bound LRRK2) [10]: 72000 nM |
|  |  |  | 83 ± 24 nM | m-TAMRA-labeled Nb6 (VHH) VHH: QVQLVESGGGLVQAGGSLRLSCAASGSIFSPTAMGWYRQAPGKERELVAGITSGGYTNYRNFARGRFTISRDNAKKTVYLQMNSLNPEDTAVYYCNTLTISWSWGQGTQVTVSS |  |
| 5 ± 1 nM | binds | 8 ± 1 nM |  | Nb6 (VHH) VHH: QVQLVESGGGLVQAGGSLRLSCAASGSIFSPTAMGWYRQAPGKERELVAGITSGGYTNYRNFARGRFTISRDNAKKTVYLQMNSLNPEDTAVYYCNTLTISWSWGQGTQVTVSS | Ki [10]: 5000 nM; Kiu^app (apparent Ki for ATP-bound LRRK2) [10]: 8000 nM |
|  |  |  | 78 ± 25 nM | m-TAMRA-labeled Nb36 (VHH) VHH: QVQLVESGGGLVQPGGSLRLSCAASGSIRSITTSAWFRQPPGKQRELVAGISSGTSTNYADSVKGRFTISRDNAKNTVYLQMNSLKPEDTAVYYCHVWISGTWYSGQGTQVTVSS |  |
|  | binds | 37 ± 4 nM |  | Nb38 (VHH) VHH: QVQLVESGGGLVQPGGSLRLSCAASGSIRSIATSAWYRQPPGKQRELVAGISSGTTTNYADSVKGRFTISRDNAKNTVYLQMNSLKPEDTAVYYCHAWISGTWISGQGTQVTVSS | binding result [2]: no binding; binding result [8]: no binding; binding result [5]: no binding; binding result [6]: no binding; binding result [7]: no binding; binding result (LRRK2 Roc domain): no binding |
|  |  |  | 48 ± 11 nM | m-TAMRA-labeled Nb38 (VHH) VHH: QVQLVESGGGLVQPGGSLRLSCAASGSIRSIATSAWYRQPPGKQRELVAGISSGTTTNYADSVKGRFTISRDNAKNTVYLQMNSLKPEDTAVYYCHAWISGTWISGQGTQVTVSS |  |
|  | binds | 16 ± 8 nM |  | Nb36 (VHH) VHH: QVQLVESGGGLVQPGGSLRLSCAASGSIRSITTSAWFRQPPGKQRELVAGISSGTSTNYADSVKGRFTISRDNAKNTVYLQMNSLKPEDTAVYYCHVWISGTWYSGQGTQVTVSS | binding result [2]: no binding; binding result [8]: no binding; binding result [5]: no binding; binding result [6]: no binding; binding result [7]: no binding; binding result (LRRK2 Roc domain): no binding |
|  |  |  | 145 ± 55 nM | m-TAMRA-labeled Nb22 (VHH) VHH: QVQLVESGGGLVQAGGSLRLSCAASGRTFSSYTMGWFRQAPGKEREFVAAIRWSGGSTYYADSVKGRFTISRDNAKNTVYLQMNSLKPEDTAVYYCAASDRGGFIATSGGWMDYWGKGTQVTVSS |  |
| 5 ± 1 nM | binds | 10 ± 1 nM |  | Nb22 (VHH) VHH: QVQLVESGGGLVQAGGSLRLSCAASGRTFSSYTMGWFRQAPGKEREFVAAIRWSGGSTYYADSVKGRFTISRDNAKNTVYLQMNSLKPEDTAVYYCAASDRGGFIATSGGWMDYWGKGTQVTVSS |  |
